Laboratory results from the supplement of paper PMC10724198.
± gives the standard deviation of the averaged measurements.

System: Saccharomyces cerevisiae
Assay: protein stability index of tFT-peptide fusion (C-terminal peptide) (PSI (0-1 scale)); higher = more stable (slower turnover)
Details: genetic background: wild type; temperature: 30 C
Description: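 Multiplexed protein stability (MPS) profiling in S. cerevisiae. Random 12-aa peptides (tFT-X12 library) are fused to the C-terminus of a sfGFP-mCherry tandem fluorescent timer, after mCherry and a GGGS linker. Cells are FACS-sorted into 8 mCherry/sfGFP bins and deep-sequenced. The protein stability index (PSI) is the read-weighted bin average, scaled from 0 (unstable) to 1 (stable). Only peptides with >10 reads are reported; cells were grown at 30 °C in SC-His with glucose.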
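Note: PSI is a weighted mean of sequencing reads over stability bins, variants kept only with over 10 reads, mCherry proximal and sfGFP distal, peptide attached via GGGS linker.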

| Sequence | protein stability index |
| --- | --- |
| HTRPTALLPLSR | 0.701 ± 0.014 |
| HTSKFKKQRKKR | 0.7975 ± 0.0022 |
| HTWALERVCSLD | 0.687 ± 0.066 |
| HTYQAAFRSHAI | 0.6544 ± 0.00072 |
| HVKLLSSNGPLV | 0.671 ± 0.031 |
| HVLRVWKMCVLE | 0.586 ± 0.033 |
| HVTFPLRRTFRR | 0.697 ± 0.013 |
| HWRRGGRRGGDR | 0.703 ± 0.1 |
| HYPGSGAVEQHE | 0.599 ± 0.016 |
| HYSPLPSLPPLP | 0.684 ± 0.077 |
| IADRLAAIPMRY | 0.669 ± 0.011 |
| IARTGLGIIIKI | 0.663 ± 0.054 |
| IASSRPHSNQRE | 0.692 ± 0.021 |
| ICRGLTVPGVAI | 0.612 ± 0.0095 |
| ICWSTALDASFG | 0.725 ± 0.024 |
| IDLLTRKVDLFN | 0.66 ± 0.055 |
| IDLTLLRHPAYL | 0.732 ± 0.05 |
| IDSWWLPSDLKV | 0.835 ± 0.017 |
| IDVLTGTDAGPT | 0.6278 ± 0.004 |
| IECACVPLVAGG | 0.656 ± 0.024 |
| IECLRVVRSRCG | 0.6724 ± 0.0023 |
| IEKKNKTKKKRI | 0.748 ± 0.13 |
| IERGLEGHLGHC | 0.668 ± 0.035 |
| IESRGCSMQKRL | 0.7489 ± 0.0039 |
| IESVGRTTRQGE | 0.748 ± 0.11 |

| Sequence | protein stability index |
| --- | --- |
| IFRERWGCFEAI | 0.763 ± 0.13 |
| IFRLFAFHENRG | 0.679 ± 0.051 |
| IFSIRCFHSDFV | 0.6486 ± 0.0028 |
| IFVCRCFGFFGG | 0.681 ± 0.04 |
| IGAHTRRRVNGA | 0.675 ± 0.096 |
| IGCCSGYGGERG | 0.691 ± 0.018 |
| IGGIIFICTSNK | 0.555 ± 0.015 |
| IGGVSHEMKAKR | 0.619 ± 0.013 |
| IGLISTQYYWSL | 0.621 ± 0.043 |
| IGPRGPFHLTRI | 0.675 ± 0.037 |
| IGSEGGKNGRRK | 0.616 ± 0.044 |
| IGVGVGIDGLPW | 0.693 ± 0.093 |
| IHCFSVDLLVAR | 0.542 ± 0.018 |
| IHLTRGGNGHMD | 0.6 ± 0.04 |
| IHPKREPRDNNI | 0.679 ± 0.015 |
| IHVKKNQACSLF | 0.646 ± 0.024 |
| IIDKQENNLKSE | 0.7513 ± 0.0011 |
| IIKPPDIQQSRQ | 0.739 ± 0.026 |
| IIKRKKLMEKRT | 0.663 ± 0.013 |
| IINKRKKKKDKG | 0.644 ± 0.019 |
| IISAIAPFIRWD | 0.69 ± 0.03 |
| IKGHLYDFPPGT | 0.792 ± 0.1 |
| IKHKSKKNNCKK | 0.744 ± 0.052 |
| IKIIKNDQKRIK | 0.709 ± 0.061 |
| IKKITKTKPNHN | 0.673 ± 0.053 |

| Sequence | protein stability index |
| --- | --- |
| IKKKKEEKKKKK | 0.586 ± 0.023 |
| IKKLNTYIKRNV | 0.586 ± 0.025 |
| IKKLYIICQQMK | 0.666 ± 0.035 |
| IKKNKKKKNERK | 0.675 ± 0.025 |
| IKQEKPTKLPEP | 0.6435 ± 0.0052 |
| IKREATNASEPN | 0.686 ± 0.057 |
| IKREGRDNEEKK | 0.703 ± 0.039 |
| IKTKKKKENKRR | 0.723 ± 0.008 |
| IKTLLDYESMRS | 0.768 ± 0.034 |
| IKVKRRQLKQEK | 0.779 ± 0.097 |
| ILCPFSGCGAGG | 0.683 ± 0.022 |
| ILEGFRHVSPVG | 0.717 ± 0.085 |
| ILFGSILGVPLL | 0.661 ± 0.01 |
| ILFSILHLLSYL | 0.6426 ± 0.0039 |
| ILVHFQGVHTVL | 0.663 ± 0.018 |
| IMCPVRDSNIFS | 0.733 ± 0.026 |
| INIKKKKKIQHI | 0.564 ± 0.016 |
| INKRKQKLIKKV | 0.628 ± 0.0069 |
| INWGVRGTLSSE | 0.706 ± 0.04 |
| IPLSPLRSPPPR | 0.648 ± 0.023 |
| IPRPFRSLPFLP | 0.7307 ± 0.0047 |
| IPRRMFNIRKKR | 0.666 ± 0.036 |
| IQAVHYTARVPN | 0.664 ± 0.072 |
| IQIGESLYFWFV | 0.654 ± 0.066 |
| IRAGRGPARVVP | 0.707 ± 0.058 |

| Sequence | protein stability index |
| --- | --- |
| IRLMTTIITYMI | 0.44 ± 0.13 |
| IRPNLERKIKVR | 0.6226 ± 0.0014 |
| IRQPNHSIGPHG | 0.719 ± 0.024 |
| IRRHNVELSGYL | 0.641 ± 0.022 |
| IRRKLINYIKKG | 0.619 ± 0.066 |
| IRRLCGSSRPLP | 0.708 ± 0.037 |
| IRSAGEKDRKRE | 0.696 ± 0.03 |
| IRSVNFNIFVKR | 0.748 ± 0.057 |
| IRSVVLSSCWRG | 0.706 ± 0.0097 |
| IRVADLNSSSFC | 0.888 ± 0.16 |
| ISIRKNSNQETM | 0.692 ± 0.14 |
| ISPRSRSCAYGV | 0.734 ± 0.073 |
| ISRDNSQITRNM | 0.68 ± 0.015 |
| ITALSSPVRDKL | 0.646 ± 0.061 |
| ITEGGANLEGRF | 0.661 ± 0.029 |
| ITGPLAPYLGGF | 0.688 ± 0.037 |
| ITIPICTTFHHV | 0.731 ± 0.029 |
| ITIPISGLQVGV | 0.591 ± 0.027 |
| ITNQVIRLSLSN | 0.732 ± 0.083 |
| ITRAVLPARLFR | 0.705 ± 0.013 |
| ITRDFQLWASDL | 0.708 ± 0.0083 |
| ITSHRDSVSRWK | 0.707 ± 0.0095 |
| ITSQLWGVPLPY | 0.7134 ± 0.0032 |
| IVGRGGRGGWGV | 0.685 ± 0.04 |
| IVLHLAASPTPP | 0.65 ± 0.015 |

| Sequence | protein stability index |
| --- | --- |
| IVLRRRKVTRRI | 0.68 ± 0.043 |
| IVPIVDMMIIRK | 0.653 ± 0.068 |
| IVPPALRSDGRR | 0.668 ± 0.035 |
| IVSPSYGEGSIR | 0.695 ± 0.026 |
| IVSVSLYLYHFR | 0.548 ± 0.0059 |
| IWFRGGPGQVPV | 0.683 ± 0.027 |
| IWGLSGGKKLLW | 0.718 ± 0.043 |
| IWQLRARIQAGW | 0.617 ± 0.047 |
| IWTRAFAPSNRF | 0.715 ± 0.02 |
| KACVKRVYCILE | 0.58 ± 0.015 |
| KAEEKARGEDWQ | 0.681 ± 0.05 |
| KAGGGEGRDAWG | 0.667 ± 0.049 |
| KAKKKRRGTSKN | 0.703 ± 0.066 |
| KARMTDQLKSTS | 0.672 ± 0.045 |
| KATIRRGGKKEK | 0.682 ± 0.014 |
| KCGLQRFREAIY | 0.61 ± 0.0084 |
| KCKLNDTETMGK | 0.693 ± 0.026 |
| KCLCGVHVRLRA | 0.5901 ± 0.0017 |
| KDDHTLMTKYNA | 0.643 ± 0.025 |
| KDEGIRENKPNH | 0.668 ± 0.078 |
| KDGMATKCIAYT | 0.657 ± 0.011 |
| KDLEIKKEKRKD | 0.666 ± 0.015 |
| KEARHCAQRKDI | 0.546 ± 0.062 |
| KEKNKIKNREVK | 0.618 ± 0.052 |
| KENKKKKQRKLK | 0.774 ± 0.067 |

| Sequence | protein stability index |
| --- | --- |
| KEQKKKLKKKHG | 0.594 ± 0.099 |
| KERKEKKKKKNK | 0.7227 ± 0.0045 |
| KESEKRKRENKN | 0.698 ± 0.025 |
| KESKIKDKNSII | 0.734 ± 0.012 |
| KETLRMKFNSWK | 0.6764 ± 0.0043 |
| KETSERKNKETG | 0.624 ± 0.041 |
| KFKAYNIKKWKE | 0.702 ± 0.03 |
| KFVSQLGQRTRF | 0.745 ± 0.05 |
| KGEGGEGSMGGA | 0.733 ± 0.053 |
| KGGCGAGRDGRG | 0.731 ± 0.026 |
| KGGFGCVGLPGG | 0.638 ± 0.031 |
| KGHQGGLSEGMI | 0.6 ± 0.092 |
| KGMEWEKGYKRL | 0.838 ± 0.23 |
| KGQNLAVTRERE | 0.7 ± 0.024 |
| KGRLRVGAAGCD | 0.633 ± 0.011 |
| KGYGKTGTLRHD | 0.646 ± 0.013 |
| KHQNEKKQTNKA | 0.623 ± 0.034 |
| KIDQLDHVGLYS | 0.674 ± 0.015 |
| KIEHEGIKTGGT | 0.757 ± 0.16 |
| KIFRNKHENDLK | 0.695 ± 0.026 |
| KIHRNGNKKEKD | 0.7 ± 0.013 |
